PMC4673130

Target: T1, HA-tetherin (wild type), Q10589
T1 chain: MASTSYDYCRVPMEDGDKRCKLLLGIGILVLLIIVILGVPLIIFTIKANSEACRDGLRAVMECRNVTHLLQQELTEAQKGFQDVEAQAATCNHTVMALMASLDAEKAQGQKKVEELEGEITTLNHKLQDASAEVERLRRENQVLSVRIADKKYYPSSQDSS
Test: non-reducing SDS-PAGE and immunoblot; lysates of HEK293 cells transfected with HA-tetherin with or without SHBs plasmids; SDS-PAGE in the absence or presence of 2-mercaptoethanol, blot with anti-HA; dimer and monomer bands
Conditions: remark: other sources report otherwise

B1: HA-tetherin (wild type), Q10589 1-161 (natural protein)
chain: T1 chain
stoichiometry N: 2
